Experimental data taken from patent US20160237162A1.

Columns and labels:
[1] = biological target: human HER3 on human cancer cells (human) (UniProt P21860)
[2] = biological target: human HER3 on human cancer cells (human) (UniProt P21860); test: cell-based or functional assay
[3] = biological target: human HER3 on human cancer cells (human) (UniProt P21860); remark: listed apart in the source
[4] = biological target: human HER3 on human cancer cells (human) (UniProt P21860); remark: listed apart in the source
[5] = biological target: human HER3 on human cancer cells (human) (UniProt P21860); remark: listed apart in the source
[6] = biological target: human HER3 on human cancer cells (human) (UniProt P21860); remark: listed apart in the source
[7] = biological target: human HER3 on human cancer cells (human) (UniProt P21860); remark: listed apart in the source
[8] = biological target: human HER3 on human cancer cells (human) (UniProt P21860); remark: listed apart in the source
[9] = biological target: human HER3 on human cancer cells (human) (UniProt P21860); remark: listed apart in the source
[10] = biological target: human HER3 on human cancer cells (human) (UniProt P21860); remark: listed apart in the source
[11] = biological target: human HER3 on human cancer cells (human) (UniProt P21860); remark: listed apart in the source
[12] = biological target: human HER3 on human cancer cells (human) (UniProt P21860); remark: listed apart in the source

- IC50; suppression of pHER3 (pHER3 ELISA), EGFR-TKI (gefitinib)-resistant HCC827 cells [1]: 31 ng/ml
- Maximum inhibition %; suppression of pHER3 (pHER3 ELISA), EGFR-TKI (gefitinib)-resistant HCC827 cells [1]: 24%
- fold decrease in pHER3 ELISA in HCC827 cells; potency against 2C2 [2]: 10 fold
- pHER3 ELISA in Kato III cells, maximal pHER3 suppression [2]: 60%
- IC50; suppression of pHER3 (pHER3 ELISA), BT-474 cells [3]: > 10 µg/ml
- IC50; suppression of HRG-induced pHER3 (pHER3 ELISA), MCF-7 cells [4]: 33 ng/ml
- Maximum inhibition %; suppression of HRG-induced pHER3 (pHER3 ELISA), MCF-7 cells [4]: 77%
- IC50; suppression of pAKT (Meso-Scale Discovery assay), MKN45 cells [5]: 15.8 ng/ml
- Maximum inhibition %; suppression of pAKT (Meso-Scale Discovery assay), MKN45 cells [5]: 38%
- IC50; suppression of pAKT (Meso-Scale Discovery assay), Kato III cells [6]: 6.2 ng/ml
- Maximum inhibition %; suppression of pAKT (Meso-Scale Discovery assay), Kato III cells [6]: 22%
- IC50; suppression of pAKT (Meso-Scale Discovery assay), BT-474 cells [7]: > 10 µg/ml
- Max inhibition%; suppression of pAKT (Meso-Scale Discovery assay), BT-474 cells [7]: 1%
- IC50; growth suppression (CellTiter-Glo, 6 days), HMCB melanoma cells [8]: 1.73 µg/mL
- IC50; growth suppression (CellTiter-Glo, 6 days), MDA-MB-175 cells [9]: 0.99 µg/mL
- Maximum inhibition %; growth suppression (CellTiter-Glo, 6 days), MDA-MB-175 cells [9]: 39%
- IC50; suppression of pHER3 (pHER3 ELISA), Kato III cells [10]: 9.6 ng/ml
- Maximum inhibition %; suppression of pHER3 (pHER3 ELISA), Kato III cells [10]: 62%
- IC50; suppression of pHER3 (pHER3 ELISA), HCC827 cells [11]: 23 ng/ml
- Maximum inhibition %; suppression of pHER3 (pHER3 ELISA), HCC827 cells [11]: 41%
- IC50; suppression of pHER3 (pHER3 ELISA), MKN45 cells [12]: 16.1 ng/ml
- Maximum inhibition %; suppression of pHER3 (pHER3 ELISA), MKN45 cells [12]: 58%
Substance: AMG anti-HER3 monoclonal antibody (U1-59)
